Consider 2 proteins from PMC4258425.

Holding throughout (conditions): 100 mM Na2HPO4 pH 8.0, 22 °C
Substrate in the series “decarboxylase kinetics”: O=CCC(=O)O
Briefly: decarboxylase kinetics. Type of series: biochemical, Bacillus subtilis.

Substrate in series [1]: CC#CC(=O)C(=O)O
Briefly: hydratase kinetics. Type of series: biochemical, Bacillus subtilis.

Substrate in series [2]: CC#CC(=O)C(=O)O
Briefly: hydratase kinetics. Type of series: biochemical, Paraburkholderia phymatum.

B1: YodA (Bacillus subtilis subsp. subtilis str. 168) (protein)
chain: PLLRFDVIEGRDEKSLQLLLDTAHQAMVEAFGVPERDRYQIVHQHPANELIIQDAGLGFQRTKDMVIISMTSKARTESQKEKLYALLAERLEKKCEISPDDLMVSITENGDADWSFGLGEAQFLNGKL
What is called Km is the concentration of substrate that gives half-maximal velocity. One may read the kcat as the maximal rate divided by the concentration of active sites. Usually kcat/Km stands for the turnover number divided by the Michaelis constant. In the case of B1, in “decarboxylase kinetics”, the Km is 6.8 ± 0.94 mM, the kcat was determined as 12.2 ± 1.1 s⁻¹ and the kcat/Km was determined as 1300 M⁻¹ s⁻¹. Moreover, in “hydratase kinetics [1]”, the Michaelis-Menten constant (Km) is 270 ± 40 µM, the kcat is 0.03 ± 0.001 s⁻¹ and the specificity constant (kcat/Km) was found to be 111 M⁻¹ s⁻¹.

B2: Bp4401 (Paraburkholderia phymatum STM815) (protein)
chain: PLTRIALRAGKPAAYRQALTEGIQRALIAEFNVPEDDIFMVISEQDESNFVYNRNYLDIQRSDDFVLIQLTVTNSRTQEQKKALYKRIVDNLAEYPGVRREDVFINLVEVLKENWSFGNGIAQYAL
On to B2, for which, in the series “hydratase kinetics [2]”, the Km turned out to be 5 ± 0.35 mM, the kcat was 14 ± 0.1 s⁻¹ and the kcat/Km came to 2800 M⁻¹ s⁻¹.
